Assay: soluble fraction after stress (log2 fold change); higher = more stays soluble; pooled small domains, quantitative proteomics
Conditions: stress: pH 4
In short: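 Custom libraries of small protein domains were pooled and measured with high-throughput quantitative proteomics after pH 4 stress. The read-out is the fold change in the amount of each domain that stays soluble after the acid stress, taken as a measure of aggregation propensity. Fold changes are on a log2 scale, and higher values mean more of the domain stayed soluble.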

Row | Sequence | soluble fraction (log2)
1 | HMETVMYLRQIKRPQGIYLAIQESYYDSSKKQSRTRTIESIGYLDNLRKEYEDPIAFFSQKAAAMTSEKKK | -0.177
2 | HMETVQTGTVKVSNSLNVRSGAGTNYSVLGSLSNGAKVEIVGTSGSWYKIKYGSGYGYVSKDYVTVS | -0.28
3 | HMETVSFNPDIAVIPDYRHVVILGETTKTIANKYDIPVDILKAANPGLGNNVTKGDRLRVPDKTKLQ | -0.0151
4 | HMETYHIQMKGDPSKGIVGFSQLDMVIDKIKRLETEKGIAPYELEVLDGDTMEKYSGEEFLTMHE | -1.21
5 | HMETYSGVERAAILVMYLERTLAKALLDHMNDEEVRRVGMAMASIDRVEGPDIERIVGDFVRELYEVS | -0.857
6 | HMETYTVPEVLGLTPEQAAQLPEVKDIFTLDVKEEGDFSDKPVGTIVRQSPTEGEHRKGDNLVIEVWLSV | -0.269
7 | HMEVADAAQRKILQALQVQPLTVEQLSQELRTDTGDLLVSLSMMEITGLIRREAGNTFLAVFAPK | -0.598
8 | HMEVEIPSREALLGLVQKHLKPVSFDEFVSHFKLGDERQQVGIKRRLRAMERDGQLVYTKANSYGLPDRM | -0.197
9 | HMEVGVSGTVFNTDSLNVRKGPGTNFDTVTSLKRGSVVEVFEQSAVDGTVWGRIANGWVNMQYVSL | -0.0681
10 | HMEVKEVDYSAFMTMTEENSISKVEIEENQILFKKKGDDQTTYKTARMDDPALITRLHDQGVDFTGQ | 0.0244
11 | HMEVKRANRKERFLEALPYQFSRQDYLNIADKNKIPHKTAEGYITKFVDAGLIHREAHNNYTNPTKA | 0.045
12 | HMEVLPLHQVKLKYAEADTILIALKSAQSMLSPRGQLLADNRSQQIFVYDDEAHTATLIEAIKHLDQPL | -0.32
13 | HMEVLTEPKVQSIDTHGEKSTFVIESPNPLQPDEIAKLVGADGISVRVDRTWLKSHRDSTWTYSILTVS | 0.163
14 | HMEVPFRNAAIFKTRSGDYAIRASYDGVDLGIKPIEKSTARTYFQLTDVKDKESFLNMTARNQYESEIAGI | 0.153
15 | HMEVPNLIGMTDKDLQRTYFQLPIEAAGDGSVVIKQLPEPGEKVKEGSVIRVLLG | 0.00722
16 | HMEVPQKTLEILEPWRGRKGFLIPVLQAVQHEFGYVPKEAIETVSREMKMPTAEIYGVVTFYAQFH | -0.513
17 | HMEVSEGEIREKVESVFSSNPRQAYNYKQISKKLNINDKSERQIVWDVLRKLAGSGKIQEVEHGRFRARAE | -0.0385
18 | HMEVSKETFPAYVAVDSLPVYKSASTSSSKVTTIDFGREVTVVETRGGWAKIQYGSYKGFAEIEGMSKN | -0.0269
19 | HMEVVELTDDEKMILATLHDGPVEIGHIKQVVGLSGKKWDAATKSLRQKGLINVVLENEQKLMVK | -0.0453
20 | HMEWGEADFVRLDEALATLRTLSPRQAEVVDLRFFSELSLEETAATLGLSLATVKRDWSVARLYLQRALS | -0.815
21 | HMEWTVEKQAAATLNAWMRKNSEMTSEKKVAVAAGIGPATVNRIMKAEVSTTIGVLSSLARAFGHEAYEMI | 0.114
22 | HMEYDEVVVVKQIIPKGKNTMVAHLKHLKEHGETGFLKQAVGYLKLHASEIPFSVDAVISEVH | -0.0529
23 | HMEYDYKVIDFFKDYYSYLNYQEIEPNILDKQLTTLTEEESAKIAGIMKLDYEDFTRGIEIVTGS | -1.41

Row | Sequence | soluble fraction (log2)
24 | HMEYLIENYGSVINQARMKKGMTQEQLSSKTGVSQAYIRSIESQNMKPTDAVARKIEFELGIKLFE | 0.147
25 | HMEYSKSIKRLREDKNLTVEELAKRLSLDVEEIQKAEDGEDVDQKTLEAIARYFGVQYDSLVEGTAKSK | -0.258
26 | HMEYTTEELDSLLKLYFQTHESINRNEFEQLTSYTRTTASRRLKTLVQAGKLQNIGLYRFPVYKPTEGNF | -0.037
27 | HMEYYWHQLKGLEVVNTRGESLGRVRRLLETGANDVLVLEGEQERLIPYVPDTIKQVDLAKGLIEVAWDRD | -1.23
28 | HMFAADIGVGIVDADSLRVRSEPSTGAPIVTSLLRGTQVTVQEKLDGWYRITYNDVSGFVSAEYLIFTADE | -0.297
29 | HMFAGEWKQDASGWWYQNDDGSFTRNGWQNISGKQYYFNENGYMLHDTTTPDGKQVGSDGSLV | -0.389
30 | HMFAKVEGITGDILDKLQQQRGFLALSDKSSPEAIYDTFGVSKKVFKQAIGTLFKQQKISIEAEGIRLV | -0.0102
31 | HMFASSADGVEGLKTNPIFASTKEKSDAGKLLYTRYLAIGIFRMLELAKATDPKALEALVEAGG | 0.147
32 | HMFDDEELDTFAGRQSDSYDQQEVEQFSDVLHTMRQDEVQAWWRSLTLRGISLPDELKDEVIML | -1.6
33 | HMFDDLSTNLRDLAHNYIEKYSPSKQQLKVFLLKKYLMKFKGSKTKKEISEIIDKIISNLEENKYLNDEL | 0.179
34 | HMFDFMVLGQAIKKARESKEMTREQLAEILDVAPRHIQSIENEGQYPSFPLFIRLVTMFNISVDQY | -1.4
35 | HMFDGNIKIVEDAFSVTIVARGTEVKISGDPENVYLASKTVEGLLTLIDKGEAITDQRVHYVIGLVREG | -1.71
36 | HMFDGTLSIYPNPSKGIFNLDLLNVKDGEYTITVDNLLGQEVYSEIRNVINSSSKTLDLSNLTKGV | -0.433
37 | HMFDLKKIYGTILDETKSSLLLSTDDGREVQIIKTDGTEVLASGLGVYVEVAYRDETPDGYPIALTI | -0.298
38 | HMFDTVKIGKRIAELRKKRDMTQFELADRLGISYQAVSNWERGNSMPDIAKLPELAEIFGVTVDEILG | 0.135
39 | HMFEARNTTFSEDGKTITETYGVKRIETEFVSDSTIVQKLYDNDVLTKTKTITFSADGLSIKEDV | -1.33
40 | HMFEDYNELDEYLETRFIPTYVLLKQRKNANGEIDHFPSIRLQHIMALKLSEAELEHVMNYLKEKNIRVG | -0.182
41 | HMFEKVKLTLTIPSKYSGSTYSALRNRMNKFSKEEWLSNGDLKIEIEVTGGQKTDIYTLINKLTNGEAIIE | -0.203
42 | HMFELDELDLVILKNLANGLSKKQIRVKLKKMDLRPNSESAIDKRVSKLFDEFGAKNSTELVAKLIREGL | -0.234
43 | HMFELTVGTPIRVIREPYFGKLGTVTELPAQLMVVESGTEVRVLKAKIEGEGEVLVPRANVEIIATG | -0.77
44 | HMFELVKISENIPIRDLAETLKTTPNEIIKELMVFGVLANINQTLNFDLASKVADKLGFEVELL | -0.363
45 | HMFEMPTSLVRTLSAIAIKQPVMQSEIIKLRGAGAYDHIKELIIRELVHRKEEGRSPILTTTKKFQEYFRL | -0.948
46 | HMFERIYVFSRDGDIIELPKGSTVLDFAYHVHTHVGNRAQAARVNKRYVPLTYQLKTGEQVEIIIS | -1.05

Row | Sequence | soluble fraction (log2)
47 | HMFEYDEEEYEKLGPNADLTIKSMTDWGQSLVRKGVWSESDFEEFKIMGGTAQGLRALQKVRSYY | -1.25
48 | HMFFAGLSPEAARTLDSLPLHSWSSVEQIARQAGLNIETVRKELGLLELSGIALSRQGRFRRA | 0.0761
49 | HMFFFILNKGAKSGGEITHAVLNGSIVSKPAGWDAFHGLVLAKEKLSSEEIQRQMKELGVEMEIVPL | -1.18
50 | HMFGDQMQSYLSRLSQIDVDIIALKYGDNFTYREIGLILEMSEDSVRQRAVRARKKLETMIQKG | -1.29
51 | HMFGEDNLKSKEIKERVTEVAKHADDPVWIEARRKWKDENPDQNVKDYQQAYISGRIHELPWDVSYI | -0.0276
52 | HMFGEKEFYQWIGKTAGEKFSGLPAAVIKSLYKYWREYNLSEEDIMGFIRQTELLPKRTPLDVELFFEK | -1.36
53 | HMFGELTPDTAKRFLLTAREQEMASLIAQGLTNKEIAFRLGISEATVRTHIYNLFQKVGVQSRIELLNVLH | -0.162
54 | HMFGNTGETSGTGVAFTRSPVDGENKIFGEFLVNAQGEDVVAGIRTPQPISEMEQAFPEVYSKFESVAEIL | -0.305
55 | HMFHDALVSFAERRVIFMKELVNRLNEARKAYYEGESIMSDKEYDNLYDKLVKMELTTGVVLPNSPTEEVG | -0.754
56 | HMFIEHSKYKLSFKYNQLGKISNVINSNNGIIMDKHFDQNITLLAKLTENTFQEIIKHFPTIIIKRL | -0.539
57 | HMFIEPPSLEELERRLRGRGTETDDVVDMRMRTALVELSQKMEYDYRLVNDDLDEATRQLVAYVNEIAEQ | -0.679
58 | HMFIPMTDAQRHLFANKLAKLPELSEYSRGTESYEDFAIRIADMLLEPPKFRMFYPLLEQLGF | -1.19
59 | HMFIVTDQMQRVLDYITEKEKATNNDLEELLGVKSTRIYTITRKLIQHNLIIPVGKGKNKYYIL | -0.724
60 | HMFKDVTVPSVINKTEAEATNMLKGLNLVVSVEYEENANKSDGIVTAQNVNANKVIKEGETVTITVNKQP | 0.22
61 | HMFKNWMPFDEARIFVRKLKFNSHDEFRKYLKANEINIPSKPWSTYKGKGWVSIGDFLGTHR | -0.308
62 | HMFLPGETFDVKIVKIGEGENQGVGYLDDGTMIVIENGRDHLNELARVIVTRVLQNSAGQMIFSDYEE | -1.76
63 | HMFLTPLEETRLAIEEVVIAKNIAIDLFPRESAIRKQQHELIYHYHLKGLTVGTEKNKRLRIFPRGY | -0.52
64 | HMFLTSDEGKIMQLLEDKQRITRKDAQELLGVSQSTAGRILKTLVDNGQITQRGGGRTTRYELIK | 0.22
65 | HMFMKNTEVALAIKGKFSNQTTITSKELVLFLSDLFPELSNKTIPWKINQLKAENLIYQTGRGIYTFN | -0.809
66 | HMFMMVAGHLQIKNEKYYMVLELRTEQGERKTKWIGTGLAVKGNKRRAEAMLEETRTKYLSPV | -0.177
67 | HMFMPGTIIKQFRELRNYSQDYVSRKMGISQNAYSKIENNITQLTVTHVKQLSSILDVPIVELLR | -0.366
68 | HMFMSDDDIRILVKEWLQSQNRKSYQLAEEIGIRPQTFYAQMSVRKISANTKKALSRIIPGL | 0.0503
69 | HMFMSKTAMVAIISEADKYGLFNIPEGLSVEKTADEIFEGHIEVDFDKLKNELDFVYKNEALEKQFQEN | -1
